In paper PMC7157747:

Target: Recombinant Surface Immunogenic Protein (rSIP) of Group B Streptococcus, expressed in E. coli (Group B Streptococcus (GBS), serotype III)
Assay: SEC; Size exclusion chromatography by HPLC of purified rSIP; PSS-pro kit as standard curve for molecular mass; 6 M urea used as monomer control

Recombinant Surface Immunogenic Protein (rSIP) of Group B Streptococcus, expressed in E. coli (natural protein)
stoichiometry N: 2
